Patent publication US20260209362A1 (VIB VZW, published 2026)

T1: mouse IL-12Rβ2 expressed on cells (mouse, UniProt P97378 24-874)
T1 construct: HEK293T cells, stably transduced (cDNA NM_008354); also called mIL-12RB2
T1 sequence: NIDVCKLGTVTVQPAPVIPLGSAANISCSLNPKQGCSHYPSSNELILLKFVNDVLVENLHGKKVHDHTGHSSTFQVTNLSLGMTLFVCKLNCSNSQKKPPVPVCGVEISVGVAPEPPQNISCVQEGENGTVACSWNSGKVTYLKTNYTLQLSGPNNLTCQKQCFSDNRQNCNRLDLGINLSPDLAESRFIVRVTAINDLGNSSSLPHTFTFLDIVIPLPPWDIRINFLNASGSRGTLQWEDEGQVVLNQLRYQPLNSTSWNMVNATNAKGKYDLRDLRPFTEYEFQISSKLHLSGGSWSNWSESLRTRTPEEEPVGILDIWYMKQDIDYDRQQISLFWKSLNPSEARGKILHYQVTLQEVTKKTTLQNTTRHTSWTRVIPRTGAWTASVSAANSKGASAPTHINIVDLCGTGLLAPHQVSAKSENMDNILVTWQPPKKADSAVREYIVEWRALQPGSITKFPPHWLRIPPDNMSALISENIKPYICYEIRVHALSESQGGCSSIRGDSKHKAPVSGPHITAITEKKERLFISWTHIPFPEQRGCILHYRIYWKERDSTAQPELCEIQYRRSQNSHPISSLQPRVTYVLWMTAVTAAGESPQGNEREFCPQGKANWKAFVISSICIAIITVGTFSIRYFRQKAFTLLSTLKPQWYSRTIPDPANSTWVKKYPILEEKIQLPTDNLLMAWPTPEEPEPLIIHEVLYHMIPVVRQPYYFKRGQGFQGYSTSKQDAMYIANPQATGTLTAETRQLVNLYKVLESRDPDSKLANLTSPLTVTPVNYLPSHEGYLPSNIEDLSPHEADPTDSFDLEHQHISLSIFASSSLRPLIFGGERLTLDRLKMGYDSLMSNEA

T2: biotinylated recombinant human IL-12Rβ2 (human, UniProt Q99665 24-622, random biotinylated)
T2 construct: Recombinant protein produced in-house; also called hIL-12RB2; human IL-12RB2
T2 sequence: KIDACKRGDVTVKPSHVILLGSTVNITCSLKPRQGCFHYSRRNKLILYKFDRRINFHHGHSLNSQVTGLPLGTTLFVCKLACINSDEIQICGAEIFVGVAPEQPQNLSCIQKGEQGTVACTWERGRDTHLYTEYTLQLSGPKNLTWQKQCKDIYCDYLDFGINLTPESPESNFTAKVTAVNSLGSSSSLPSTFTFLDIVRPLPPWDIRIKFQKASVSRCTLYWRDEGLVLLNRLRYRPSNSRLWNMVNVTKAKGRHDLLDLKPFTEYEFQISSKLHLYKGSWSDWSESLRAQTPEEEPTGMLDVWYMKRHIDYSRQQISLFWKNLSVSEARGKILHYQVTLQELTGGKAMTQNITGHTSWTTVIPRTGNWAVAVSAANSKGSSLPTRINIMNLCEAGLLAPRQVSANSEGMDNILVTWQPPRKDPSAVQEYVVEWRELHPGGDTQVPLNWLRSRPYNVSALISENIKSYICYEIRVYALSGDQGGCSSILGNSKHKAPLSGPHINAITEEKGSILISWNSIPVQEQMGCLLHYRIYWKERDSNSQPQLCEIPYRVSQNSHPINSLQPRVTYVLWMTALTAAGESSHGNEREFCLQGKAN

T3: biotinylated recombinant mouse IL-12Rβ2 (mouse, UniProt P97378 24-637, random biotinylated)
T3 construct: Recombinant protein produced in-house; also called mIL-12RB2; mouse IL-12RB2
T3 sequence: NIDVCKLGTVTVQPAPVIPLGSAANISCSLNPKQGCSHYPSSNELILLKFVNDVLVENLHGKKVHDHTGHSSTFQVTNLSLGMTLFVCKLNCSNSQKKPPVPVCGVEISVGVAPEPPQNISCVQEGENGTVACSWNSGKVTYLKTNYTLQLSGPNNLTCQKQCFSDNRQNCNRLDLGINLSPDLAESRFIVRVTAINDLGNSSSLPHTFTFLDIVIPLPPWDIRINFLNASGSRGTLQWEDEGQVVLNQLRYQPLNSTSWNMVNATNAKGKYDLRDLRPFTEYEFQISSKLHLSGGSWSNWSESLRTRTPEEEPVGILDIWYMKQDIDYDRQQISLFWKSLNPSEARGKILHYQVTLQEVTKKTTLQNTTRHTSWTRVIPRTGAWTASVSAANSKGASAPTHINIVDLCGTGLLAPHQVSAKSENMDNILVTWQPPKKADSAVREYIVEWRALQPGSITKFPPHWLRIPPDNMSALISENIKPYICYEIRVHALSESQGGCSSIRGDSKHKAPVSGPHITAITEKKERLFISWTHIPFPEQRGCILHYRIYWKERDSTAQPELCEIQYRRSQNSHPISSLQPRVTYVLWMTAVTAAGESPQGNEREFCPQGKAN

B1: anti-IL-12Rβ2 VHH clone 3CRHM85 (VHH, not shown: small tags and cut ends)
VHH: QVQLQESGGGLVQPGGSLRLSCAASRRTFSKHAMAWFRQAPGKEREFVAVVRWSGIITYYADSVKGRFTISRDDAKNTVYLQMDSLKPEDTAVYYCAAGDYRGNGYYVPGMYDYWGQGTQVTVSS
notes: tested as periplasmic extract; also called 21061
B2: anti-IL-12Rβ2 VHH clone 2CAMS29 (VHH, not shown: small tags and cut ends)
VHH: QVQLQESGGGLVQAGGSLRLSCAASGLTSSTYVIGWFRQAPGKEREFVAAIMLSGGTTIYADSLKGRCTIYKDNAKNTVYLQMNSLKLEDTAVYYCASGLIYRYSDFPRSQKYNFWGQGTQVTVSS
notes: tested as periplasmic extract; also called 20534
B3: anti-IL-12Rβ2 VHH clone 2CRMS29 (VHH, not shown: small tags and cut ends)
VHH: QVQLQESGGGLVQAGGPLRLSCAASGRTFSGSAMGWFRQAPGKEREFVAAITWVGGFTYYADSVKGRFTISRDNAKNTVYLQMNNLSPEDTAVYSCAAQAYHKSGYYYPPLYDYWGQGTQVTVSS
notes: tested as periplasmic extract; also called 20521
B4: anti-IL-12Rβ2 VHH clone 3CAHM40 (VHH, not shown: small tags and cut ends)
VHH: QVQLQESGGGSVQAGGSLRLSCAVSGRTVSDYAMGWFRQAPGKEREFVAAMSSSETTVYPNSMKGRITISRDNAKNAVYLQLNALKPEDTAVYYCSMGPIATFQGLARQNEYHYWGQGTQVTVSS
notes: tested as periplasmic extract
B5: anti-IL-12Rβ2 VHH clone 3CRHM12 (VHH, not shown: small tags and cut ends)
VHH: QVQLQESGGGSVQAGGSLRLSCAVSGRTVSDYAMGWFRQAPGKEREFVAAMSSSETTVYPNSVKGRITISRDNAKNAVYLQMNALKPEDTAVYYCSMGPIVTFQGLARQNEYHYWGQGTQVTVSS
notes: tested as periplasmic extract
B6: anti-IL-12Rβ2 VHH clone 2CAM88 (VHH, not shown: small tags and cut ends)
VHH: QVQLQESGGGLVPPGDSLRLSCAASGRTFSSYTMGWFRQAPGKEREFVARISQDGGSTYYADSMKGRFTVARDNAKNTVYLQMNSLKPEDTAVYYCAADMIKWGLRVGVDSFKYWGQGTQVTVSS
notes: tested as periplasmic extract
B7: anti-IL-12Rβ2 VHH clone 2CAM67 (VHH, not shown: small tags and cut ends)
VHH: QVQLQESGGGEVQAGGSLRLSCVASGRTFSVYTTGWFRQAPGKEREFVAGMSGTRTYYADSVKGRFTISRDNAKNTVYLQMNSLKPDDTAVYYCAERRYGGPSLVWDEYDYRGQGTQVTVSS
notes: tested as periplasmic extract; also called 20494
B8: anti-IL-12Rβ2 VHH clone 2CAM71 (VHH, not shown: small tags and cut ends)
VHH: QVQLQESGGGLVQAGGSLRLSCAASGRTLSNSVMGWFRQAPGKEREFVAALMWSAGSEFYTDSVKGRFSISGDGAKNTVYLQMNSLKAEDTAVYYCAAKNPPHRWSDIGKSPHYEYWGQGTQVTVSS
notes: tested as periplasmic extract
B9: anti-IL-12Rβ2 VHH clone 3CAM11 (VHH, not shown: small tags and cut ends)
VHH: QVQLQESGGGLVQAGGSLRLSCAASGRNLSTYAMGWIRQAPGKEREFVAAISWAGSTTYYADSVKGRFIISRDNAKNTLNLQMNSLKPEDTAVYYCAAPPYVTTTYYATPPSDIRDYHYWGQGTQVTVSS
notes: tested as periplasmic extract; also called 20508
B10: anti-IL-12Rβ2 VHH clone 3CAM36 (VHH, not shown: small tags and cut ends)
VHH: QVQLQESGGGLVQAGESLTLSCTASGRTFSSYGMGWFRQAPGKERDFVAAISRDARYTDYADSVKGRFTISKDNAKNTAYLQMNSLNPEDTAVYFCAAAYTYSGSHYVTARSGDYNYWGQGTQVTVSS
notes: tested as periplasmic extract; also called 20511
B11: anti-IL-12Rβ2 VHH clone 2CRH10 (clone ID 20362) (VHH, not shown: small tags and cut ends)
VHH: QVQLQESGGGLVQAGGSLVLSCAASGSAALIFLMSWYRQAPGKQRELVAEVSRGGSTTYADSVEGRFHISRDNAKNIVDLQMNSLKPEDTAVYYCKADQNYGDSLRSSWGRGTQVTVSS
notes: periplasmic extract
B12: anti-IL-12Rβ2 VHH clone 3CRH5 (clone ID 20373) (VHH, not shown: small tags and cut ends)
VHH: QVQLQESGGGLVQAGGSLVLSCAASGSAALIFLMSWYRQAPGKQRELVAEVSRGGSTTYADSVEGRFTISRDNAKNIVDLQMNSLKPEDTAVYYCKADQNYGDSLRSSWGQGTQVTVSS
notes: periplasmic extract
B13: anti-IL-12Rβ2 VHH clone 3CRHS184 (clone ID 20441) (VHH, not shown: small tags and cut ends)
VHH: QVQLQESGGGLVQAGGSLVLSCAASGSAALIFLMSWYRQAPGKQRELVAEVSRYGSTTYADSVEGRFTISRDNAKNIVDLQMNSLKPEDTAVYYCKADQYYGDSLRSSWGRGTQLTVSS
notes: periplasmic extract
B14: anti-IL-12Rβ2 VHH clone 2CRH73 (clone ID 20369) (VHH, not shown: small tags and cut ends)
VHH: QVQLQESGGGLVQAGGSLRLTCTASGSAALIFLMSWYRQAPGKQRELVAEVSRRGSTTYADSVEGRFTISRDNAKNIVDLQMNSLKPEDTAVYYCKADQYYGDSLRSSWGRGTQVTVSS
notes: periplasmic extract
B15: anti-IL-12Rβ2 VHH clone 3CRHM20 (VHH, not shown: small tags and cut ends)
VHH: QVQLQESGGGLVQAGGSLRLSCAASGRTFSKSTMGWFRQTPGKEREFVAAITWTDTEVYANSVKDRFTISRDNAKNTFYLQMHSLKLEDTAVYYCAGDRYGSSRDSVFSSPTNYPYWGQGTQVTVSS
notes: tested as periplasmic extract; also called 21055
B16: anti-IL-12Rβ2 VHH clone 3CAM10 (VHH, not shown: small tags and cut ends)
VHH: QVQLQESGGGLVQAGGSLRLSCAASGRTFSDYPMAWFRQAPGKEREFVAGISNGGTAYYADSVKGRFTISRDNTRNTVYLQMNRLKVEDTAVYYCAAVHLLSNLRGADPHEADYWGQGTQVTVSS
notes: tested as periplasmic extract; also called 20507
B17: anti-IL-12Rβ2 VHH clone 3CRHS9 (clone ID 20415) (VHH, not shown: small tags and cut ends)
VHH: QVQLQESGGGLVQPGGSLRLSCTASGSIVSIYNMDWYRQAPGNEREWVASITSSGDPYYDGSAKGRFTISRDNAKMTVYLQMNSLKPEDTAVYYCKVPTEKGNYWGQGTQVTVSS
notes: periplasmic extract
B18: anti-IL-12Rβ2 VHH clone 3CRH18 (clone ID 20377) (VHH, not shown: small tags and cut ends)
VHH: QVQLQESGGGLVQPGGSLRLSCTASGNIVSIYNMDWYRQAPGNQREWVASITSSGDPYYDGSAKGRFTISRDNAKMTVYLQMNSLRPEDTAVYYCKVPTEKGNYWGQGTQVTVSS
notes: periplasmic extract

Columns and labels:
[1] = molecular target: T1, mouse IL-12Rβ2 expressed on cells; assay: flow cytometry, P.E. VHH on HEK293T cells stably expressing mIL-12RB2
[2] = molecular target: T2, biotinylated recombinant human IL-12Rβ2; assay: ELISA, P.E., biotinylated antigen
[3] = molecular target: T3, biotinylated recombinant mouse IL-12Rβ2; assay: ELISA, P.E., biotinylated antigen
[4] = molecular target: T2, biotinylated recombinant human IL-12Rβ2; assay: BLI, P.E., off-rate ranking

Binder | % cells bound [1] [%] | dMFI [1] | ELISA hIL-12RB2/control [2] | ELISA mIL-12RB2/control [3] | Response [4] | koff [4] [s⁻¹]
B1 | 1.7 | 3.5 |  |  |  | 
B2 | 14.5 | 99 |  |  |  | 
B3 | 8.42 | 58 |  |  |  | 
B4 | 1.97 | -1.8 |  |  |  | 
B5 | 2.2 | 4.8 |  |  |  | 
B6 | 14.8 | 93 |  |  |  | 
B7 | 13.5 | 90 |  |  |  | 
B8 | 58.3 | 322 |  |  |  | 
B9 | 37.8 | 181 |  |  |  | 
B10 | 29 | 151 |  |  |  | 
B11 |  |  | 6.22 | 0.886 | 0.496 | 0.00524
B12 |  |  | 8.64 | 0.808 | 0.491 | 0.00337
B13 |  |  | 4.17 | 1.06 | 0.515 | 0.00385
B14 |  |  | 4.37 | 0.606 | 0.547 | 0.00536
B15 | 2.83 | 7.4 |  |  |  | 
B16 | 41.7 | 212 |  |  |  | 
B17 |  |  | 5.08 | 1.09 | 0.222 | 0.0034
B18 |  |  | 5.84 | 1.8 | -0.19 | 
